Laboratory results reported in the FLAb antibody collection (doi:10.7554/elife.23156).

B1: scFv; the commonest letter at each place (parent)
chain 1: EVKLDETGGGLVQPGRPMKLSCVASGFTFSDYWMNWVRQSPEKGLEWVAQIRNKPYNYETYYSDSVKGRFTISRDDSKSSVYLQMNNLRVEDMGIYYCTGSYYGMDYWGQGTSVTVS
chain 2: DVVMTQTPLSLPVSLGDQASISCRSSQSLVHSNGNTYLRWYLQKPGQSPKVLIYKVSNRFSGVPDRFSGSGSGTDFTLKISRVEAEDLGVYFCSQSTHVPWTFGGGTKLEIK

Assays:
fluorescein = variants of: B1; test: Kd (Tite-Seq); conditions: with fluorescein; format: scFv 4-4-20, heavy + light
[1] = variants of: B1; test: yeast surface expression (ratio to wild type); higher = more expressed; conditions: format: scFv 4-4-20, heavy + light

| Variant | Kd (fluorescein) | yeast surface expression [1] |
| --- | --- | --- |
| chain 1 N35E V37Q | ≥ 10 µM | 0.427 |
| chain 1 N35K V37S | ≥ 10 µM | 0.732 |
| chain 1 M105G G109S | ≥ 10 µM | 0.794 |
| chain 1 S30G M34H | 5.66 µM | 0.659 |
| chain 1 S30G M34I | 0.00239 µM | 0.889 |
| chain 1 S30E M34T W36T | ≥ 10 µM | 0.353 |
| chain 1 M105T G109V | ≥ 10 µM | 0.216 |
| chain 1 M105T G109C | ≥ 10 µM | 0.27 |
| chain 1 S30A N35Y | ≥ 10 µM | 0.655 |
| chain 1 M105G D106Q | ≥ 10 µM | 0.514 |
| chain 1 S30D M34F | 0.00142 µM | 1.22 |
| chain 1 S30F M34E | ≤ 0.000316 µM | 0.0981 |
| chain 1 M105V D106Y | ≥ 10 µM | 0.489 |
| chain 1 M105V D106E | ≥ 10 µM | 1.02 |
| chain 1 M105P W108S | ≥ 10 µM | 0.621 |
| chain 1 S30C W33I | ≥ 10 µM | 0.877 |
| chain 1 S30C W33L | ≥ 10 µM | 0.696 |
| chain 1 N35I W36L | ≥ 10 µM | 2.65 |
| chain 1 N35I W36N | ≥ 10 µM | 0.743 |
| chain 1 M105N G109E | ≥ 10 µM | 0.266 |

| Variant | Kd (fluorescein) | yeast surface expression [1] |
| --- | --- | --- |
| chain 1 M105N G109Q | ≥ 10 µM | 0.235 |
| chain 1 S30E | 0.000962 µM | 0.948 |
| chain 1 S30A | 0.000803 µM | 1.08 |
| chain 1 S30D | 0.00205 µM | 0.919 |
| chain 1 M105N D106P | ≥ 10 µM | 0.2 |
| chain 1 S30A M34C | 0.00104 µM | 0.868 |
| chain 1 S30A M34Y | 0.00361 µM | 0.977 |
| chain 1 M105W Y107C | ≥ 10 µM | 0.264 |
| chain 1 S30F Y32H | 0.0507 µM | 0.679 |
| chain 1 S30F Y32Q | ≥ 10 µM | 0.653 |
| chain 1 M105F G109L | ≥ 10 µM | 0.369 |
| chain 1 S30D W36V | ≥ 10 µM | 0.766 |
| chain 1 S30D W36R | ≥ 10 µM | 2.14 |
| chain 1 S30H D31S N35P | ≥ 10 µM | 0.391 |
| chain 1 M105V W108D | ≥ 10 µM | 0.437 |
| chain 1 M105V W108C | 6.61 µM | 0.461 |
| chain 1 N35S V37L | ≥ 10 µM | 0.839 |
| chain 1 M105W W108K | 2.88 µM | 0.363 |
| chain 1 M105W W108V | 0.000454 µM | 0.756 |
| chain 1 M105H W108D | ≥ 10 µM | 0.353 |

| Variant | Kd (fluorescein) | yeast surface expression [1] |
| --- | --- | --- |
| chain 1 M105H W108Q | ≥ 10 µM | 0.294 |
| chain 1 S30D W36V V37L | ≥ 10 µM | 0.433 |
| chain 1 S30E N35E | ≥ 10 µM | 0.894 |
| chain 1 N35M V37Y | ≥ 10 µM | 0.798 |
| chain 1 N35S W36Y | ≥ 10 µM | 0.787 |
| chain 1 S30E W33Q | ≥ 10 µM | 0.96 |
| chain 1 M105I Y107Q | 8.13 µM | 0.872 |
| chain 1 M105S G109C | ≥ 10 µM | 0.182 |
| chain 1 M105S G109T | ≥ 10 µM | 0.527 |
| chain 1 S30D D31G W33A | ≥ 10 µM | 0.663 |
| chain 1 M105K Y107T | 0.712 µM | 0.559 |
| chain 1 N35K W36F | ≥ 10 µM | 0.453 |
| chain 1 M105F Y107S G109S | ≥ 10 µM | 0.81 |
| chain 1 M105F W108Y | 0.0113 µM | 0.656 |
| chain 1 M105F W108L | 0.00175 µM | 0.451 |
| chain 1 S30F N35T W36P | ≥ 10 µM | 1.41 |
| chain 1 S30H D31L | ≥ 10 µM | 0.608 |
| chain 1 S30H D31K | 0.00468 µM | 0.668 |
| chain 1 S30H D31H | 0.00175 µM | 0.746 |

More lines, main results first:

| Kd (fluorescein) | Variant | yeast surface expression [1] |
| --- | --- | --- |
| ≥ 10 µM | chain 1 N35E V37W | 0.704 |
| ≥ 10 µM | chain 1 N35K V37M | 0.48 |
| 6.96 µM | chain 1 N35K V37K | 0.0981 |
| ≥ 10 µM | chain 1 M105P G109T | 0.291 |
| ≥ 10 µM | chain 1 M105P G109I | 0.208 |
| 0.00199 µM | chain 1 S30G M34R |  |
| ≥ 10 µM | chain 1 M105T G109L | 0.188 |
| 0.00128 µM | chain 1 S30F V37M | 0.669 |
| ≥ 10 µM | chain 1 N35H W36S | 0.692 |
| ≥ 10 µM | chain 1 N35H W36L | 0.718 |
| ≥ 10 µM | chain 1 M105G D106R | 0.434 |
| ≥ 10 µM | chain 1 S30E M34W N35M | 0.493 |
| ≥ 10 µM | chain 1 M105H G109T | 0.442 |
| ≥ 10 µM | chain 1 N35I V37M | 0.626 |
| ≥ 10 µM | chain 1 M105I D106Y | 0.4 |
| 4.14 µM | chain 1 S30F M34C | 0.514 |
| 0.00871 µM | chain 1 S30F M34Y | 0.762 |
| ≥ 10 µM | chain 1 M105V Y107A | 0.758 |
| ≥ 10 µM | chain 1 M105V Y107H | 0.957 |

| Kd (fluorescein) | Variant | yeast surface expression [1] |
| --- | --- | --- |
| ≥ 10 µM | chain 1 N35L V37P | 0.67 |
| ≥ 10 µM | chain 1 S30C W33Y | 1.04 |
| ≥ 10 µM | chain 1 N35C W36F | 0.644 |
| ≥ 10 µM | chain 1 M105N G109A | 0.467 |
| ≥ 10 µM | chain 1 M105N G109C | 0.123 |
| 5.96 µM | chain 1 S30C D31F | 0.592 |
| 0.00317 µM | chain 1 S30H | 0.839 |
| 0.00067 µM | chain 1 S30G | 1.12 |
| 0.00128 µM | chain 1 S30C | 0.906 |
| 0.00205 µM | chain 1 S30F | 0.828 |
| ≥ 10 µM | chain 1 N35G V37K | 0.46 |
| ≥ 10 µM | chain 1 N35H V37Y | 0.779 |
| 0.00115 µM | chain 1 S30A M34L | 1.1 |
| ≥ 10 µM | chain 1 M105W Y107P | 0.452 |
| ≥ 10 µM | chain 1 M105N Y107I | 1.2 |
| 0.000351 µM | chain 1 S30G D31H S101A Y102S D106E W108L | 0.844 |
| ≥ 10 µM | chain 1 M105V W108A | 0.434 |
| ≥ 10 µM | chain 1 M105V W108H | 0.493 |
| ≥ 10 µM | chain 1 N35S V37E | 0.574 |

| Kd (fluorescein) | Variant | yeast surface expression [1] |
| --- | --- | --- |
| ≥ 10 µM | chain 1 M105Y D106A | 0.432 |
| 0.00871 µM | chain 1 S30A V37R | 1.16 |
| 0.0391 µM | chain 1 S30A V37Y | 1.1 |
| ≥ 10 µM | chain 1 S30G N35P W36F | 0.718 |
| 3.2 µM | chain 1 M105K D106E | 1.01 |
| ≥ 10 µM | chain 1 M105P W108E G109W | 0.297 |
| ≥ 10 µM | chain 1 M105E Y107C | 0.847 |
| ≥ 10 µM | chain 1 N35C V37K | 0.542 |
| ≥ 10 µM | chain 1 N35C V37L | 0.527 |
| ≥ 10 µM | chain 1 N35C V37M | 0.689 |
| ≥ 10 µM | chain 1 M105Q W108E | 0.438 |
| ≥ 10 µM | chain 1 S30E W33K | 0.771 |
| 0.105 µM | chain 1 M105I Y107W | 0.669 |
| ≥ 10 µM | chain 1 M105I Y107S | 0.853 |
| ≥ 10 µM | chain 1 M105S G109H | 0.261 |
| ≥ 10 µM | chain 1 M105L G109C | 0.26 |
| ≥ 10 µM | chain 1 M105R Y107G | 0.615 |
| 0.61 µM | chain 1 M105R D106N | 0.717 |
| ≥ 10 µM | chain 1 M105H Y107G | 0.412 |
